Assay results as given in the Immune Epitope Database (IEDB).
pIC50, pKd: −log10 of the molar value.

Tests used:
Settings in all cases: source organism: Vaccinia virus WR
[1] = target: HLA-A*01:01; assay: IEDB peptide-MHC binding, purified MHC/competitive/radioactivity; ≥ and ≤ were set here for values at or beyond the usual limits of such assays
[2] = target: HLA-A*30:02; assay: IEDB peptide-MHC binding, purified MHC/competitive/radioactivity; filed as Kd, often an IC50 or EC50 that approximates it; ≥ and ≤ were set here for values at or beyond the usual limits of such assays
[3] = target: HLA-A*26:01; assay: as above
[4] = target: HLA-A*29:02; assay: as above
[5] = target: HLA-A*11:01; assay: IEDB peptide-MHC binding, purified MHC/competitive/radioactivity; ≥ and ≤ were set here for values at or beyond the usual limits of such assays
[6] = target: HLA-A*03:01; assay: as above
[7] = target: HLA-A*31:01; assay: as above
[8] = target: HLA-A*68:01; assay: IEDB peptide-MHC binding, purified MHC/competitive/radioactivity; filed as Kd, often an IC50 or EC50 that approximates it; ≥ and ≤ were set here for values at or beyond the usual limits of such assays
[9] = target: HLA-A*33:01; assay: as above
[10] = target: HLA-A*24:02; assay: IEDB peptide-MHC binding, purified MHC/competitive/radioactivity; ≥ and ≤ were set here for values at or beyond the usual limits of such assays
[11] = target: HLA-A*23:01; assay: as above
[12] = target: HLA-A*29:02; assay: as above
[13] = target: HLA-A*02:06; assay: as above
[14] = target: HLA-A*02:03; assay: as above
[15] = target: HLA-A*02:02; assay: as above
[16] = target: HLA-A*68:02; assay: IEDB peptide-MHC binding, purified MHC/competitive/radioactivity; filed as Kd, often an IC50 or EC50 that approximates it; ≥ and ≤ were set here for values at or beyond the usual limits of such assays
[17] = target: HLA-B*07:02; assay: IEDB peptide-MHC binding, purified MHC/competitive/radioactivity; ≥ and ≤ were set here for values at or beyond the usual limits of such assays
[18] = target: HLA-B*53:01; assay: as above
[19] = target: HLA-B*51:01; assay: as above
[20] = target: HLA-B*35:01; assay: as above
[21] = target: HLA-B*54:01; assay: as above
[22] = target: HLA-A*30:02; assay: as above
[23] = target: HLA-A*01:01; assay: IEDB peptide-MHC binding, purified MHC/competitive/radioactivity; filed as Kd, often an IC50 or EC50 that approximates it; ≥ and ≤ were set here for values at or beyond the usual limits of such assays
[24] = target: HLA-A*68:01; assay: IEDB peptide-MHC binding, purified MHC/competitive/radioactivity; ≥ and ≤ were set here for values at or beyond the usual limits of such assays
[25] = target: HLA-A*02:06; assay: IEDB peptide-MHC binding, purified MHC/competitive/radioactivity; filed as Kd, often an IC50 or EC50 that approximates it; ≥ and ≤ were set here for values at or beyond the usual limits of such assays
[26] = target: HLA-A*31:01; assay: as above
[27] = target: HLA-A*26:01; assay: IEDB peptide-MHC binding, purified MHC/competitive/radioactivity; ≥ and ≤ were set here for values at or beyond the usual limits of such assays
[28] = target: HLA-B*53:01; assay: IEDB peptide-MHC binding, purified MHC/competitive/radioactivity; filed as Kd, often an IC50 or EC50 that approximates it; ≥ and ≤ were set here for values at or beyond the usual limits of such assays
[29] = target: HLA-B*51:01; assay: as above
[30] = target: HLA-B*35:01; assay: as above
[31] = target: HLA-B*18:01; assay: IEDB peptide-MHC binding, purified MHC/competitive/radioactivity; ≥ and ≤ were set here for values at or beyond the usual limits of such assays
[32] = target: HLA-B*40:01; assay: IEDB peptide-MHC binding, purified MHC/competitive/radioactivity; filed as Kd, often an IC50 or EC50 that approximates it; ≥ and ≤ were set here for values at or beyond the usual limits of such assays
[33] = target: HLA-B*44:02; assay: as above
[34] = target: HLA-B*40:02; assay: as above
[35] = target: HLA-B*44:03; assay: as above
[36] = target: HLA-B*45:01; assay: as above
[37] = target: HLA-A*33:01; assay: IEDB peptide-MHC binding, purified MHC/competitive/radioactivity; ≥ and ≤ were set here for values at or beyond the usual limits of such assays
[38] = target: HLA-A*68:02; assay: as above
[39] = target: HLA-B*54:01; assay: IEDB peptide-MHC binding, purified MHC/competitive/radioactivity; filed as Kd, often an IC50 or EC50 that approximates it; ≥ and ≤ were set here for values at or beyond the usual limits of such assays
[40] = target: HLA-B*40:01; assay: IEDB peptide-MHC binding, purified MHC/competitive/radioactivity; ≥ and ≤ were set here for values at or beyond the usual limits of such assays
[41] = target: HLA-B*40:02; assay: as above
[42] = target: HLA-B*18:01; assay: IEDB peptide-MHC binding, purified MHC/competitive/radioactivity; filed as Kd, often an IC50 or EC50 that approximates it; ≥ and ≤ were set here for values at or beyond the usual limits of such assays

QSDTVFDYY
pIC50 [1]: 9.00
pKd [2]: 5.53
pKd [3]: ≤ 4.30
pKd [4]: ≤ 4.30

KVLHVTDTNK
pIC50 [5]: 8.00
pIC50 [6]: 8.09
pIC50 [7]: 6.33
pKd [8]: 5.52
pKd [9]: ≤ 4.30

VWINNSWKF
pIC50 [10]: 8.19
pIC50 [11]: 8.28
pIC50 [12]: 8.31

ILDDNLYKV
pIC50 [13]: 8.05
pIC50 [14]: 7.21
pIC50 [15]: 8.35
pKd [16]: ≤ 4.32

MPAYIRNTL
pIC50 [17]: 9.28
pIC50 [18]: 7.31
pIC50 [19]: 6.34
pIC50 [20]: 7.72
pIC50 [21]: 8.47

SQSDTVFDY
pIC50 [22]: 8.64
pKd [23]: 5.52
pKd [3]: 5.73
pKd [4]: 6.07

IVFNLPVSK
pIC50 [5]: 8.34
pIC50 [24]: 8.27
pIC50 [6]: 8.66
pIC50 [7]: 7.64
pKd [9]: 5.50

SMHFYGWSL
pKd [25]: 5.69

AVFKDSFLRK
pIC50 [5]: 6.92
pIC50 [24]: 7.33
pIC50 [6]: 8.09
pKd [9]: ≤ 4.37
pKd [26]: 6.16

FTIDFKLKY
pIC50 [1]: 7.22
pIC50 [27]: 7.68
pIC50 [12]: 8.85
pKd [2]: 5.98

QSITRSLIY
pIC50 [1]: 7.13
pIC50 [22]: 6.54
pIC50 [12]: 6.53
pKd [3]: 5.30

RPMSLRSTII
pIC50 [17]: 9.37
pIC50 [21]: 6.58
pKd [28]: 5.91
pKd [29]: 5.02
pKd [30]: ≤ 4.34

DMCDIYLLY
pIC50 [1]: 7.55
pIC50 [22]: 7.26
pIC50 [27]: 7.09
pIC50 [12]: 7.05

VTSSGAIYK
pIC50 [5]: 8.51
pIC50 [24]: 7.62
pIC50 [6]: 8.00
pKd [9]: ≤ 4.67
pKd [26]: 5.40

DELVDPINY
pIC50 [31]: 7.80
pKd [32]: 6.28
pKd [33]: 4.84
pKd [34]: 4.88
pKd [35]: 5.57
pKd [36]: 4.91

GTIAGGVCYY
pIC50 [5]: 8.35
pIC50 [6]: 6.88
pKd [8]: 4.96
pKd [9]: ≤ 4.41
pKd [26]: 5.07

RYRFAFLYLL
pIC50 [10]: 6.78
pIC50 [11]: 7.39
pKd [4]: 4.79

YLLVKWYRK
pIC50 [5]: 8.44
pIC50 [37]: 6.94
pIC50 [6]: 8.25
pIC50 [7]: 7.35
pKd [8]: ≤ 4.30

KLKIISNDYK
pIC50 [5]: 6.33
pIC50 [6]: 8.35
pIC50 [7]: 6.86
pKd [8]: ≤ 4.30
pKd [9]: ≤ 4.30

KVMFVIRFK
pIC50 [5]: 8.14
pIC50 [24]: 7.52
pIC50 [6]: 8.85
pIC50 [7]: 8.31
pKd [9]: 6.07

FLNISWFYI
pIC50 [38]: 6.62
pIC50 [13]: 9.00
pIC50 [14]: 9.48
pIC50 [15]: 9.77

VSVNNVCHMY
pIC50 [1]: 6.89
pIC50 [22]: 8.43
pKd [3]: 5.37
pKd [4]: 5.97

HPRHYATVM
pIC50 [17]: 9.06
pIC50 [20]: 7.20
pKd [28]: 5.51
pKd [29]: 4.83
pKd [39]: 5.36

KPKPAVRFAI
pIC50 [17]: 9.74
pKd [28]: ≤ 4.69
pKd [29]: ≤ 4.30
pKd [30]: ≤ 4.44
pKd [39]: 6.17

KTKNFTIDFK
pIC50 [5]: 7.66
pIC50 [24]: 6.84
pIC50 [6]: 7.96
pIC50 [7]: 7.85
pKd [9]: ≤ 4.39

FLTSVINRV
pIC50 [38]: 9.38
pIC50 [13]: 8.32
pIC50 [14]: 8.85
pIC50 [15]: 9.96

GLNDYLHSV
pIC50 [13]: 8.41
pIC50 [14]: 8.85
pIC50 [15]: 9.13
pKd [16]: 5.57

FGDSKEPVPY
pIC50 [1]: 6.86
pKd [2]: 5.09
pKd [3]: 5.25
pKd [4]: 6.25

FLSMLNLTKY
pIC50 [1]: 6.57
pIC50 [22]: 6.30
pIC50 [12]: 6.81
pKd [3]: 5.11

NLFDIPLLTV
pIC50 [38]: 8.09
pIC50 [13]: 8.82
pIC50 [14]: 9.60
pIC50 [15]: 10.00

VTDTNKFDNY
pIC50 [1]: 8.80
pIC50 [22]: 6.59
pKd [3]: ≤ 4.30
pKd [4]: ≤ 4.30

NQVKFYFNK
pIC50 [5]: 8.66
pIC50 [24]: 8.24
pIC50 [6]: 6.72
pIC50 [7]: 7.82
pKd [9]: 6.09

TEYDDHINL
pIC50 [40]: 8.12
pIC50 [41]: 6.97
pKd [33]: 6.04
pKd [35]: 5.92
pKd [42]: 6.19
pKd [36]: 5.11
